Our source for the percent of cells bound to RBD values is paper doi:10.1101/2021.11.26.470043.

In the test the target is ACE-2 receptor on the surface of Vero-E6 cells (African green monkey (endogenous in Vero-E6)). The experiment in a line: flow cytometry on cells.

In turn, “commercially available recombinant RBD (from UniProt P0DTC2) (domain or fragment)” registered a percent of cells bound to RBD of 78%.

“recombinant SARS-CoV-2 RBD (Pro330-Ser530) expressed in Sf9 insect cells (from UniProt P0DTC2 330-530) (domain or fragment)” displayed a percent of cells bound to RBD of 60%.
